Source: article PMC11180174 (Nature Communications, 2024)

Key:
[1] = target: T1, SARS-CoV-2 (Wuhan-Hu-1 strain) wild-type RBD, His-tagged (SARS-CoV-2 Wuhan-Hu-1 (MN908947.3), UniProt P0DTC2); assay: BLI; details: both partners purified
T1 construct: source: HEK293F, transiently transfected, purified (Ni Sepharose); not shown: 8xHis, C-terminal, kept

[2] = target: T2, SARS-CoV-2 (Wuhan-Hu-1 strain) wild-type spike RBD-His (SARS-CoV-2 Wuhan-Hu-1 (MN908947.3), UniProt P0DTC2); assay: BLI; details: both partners purified
T2 construct: source: HEK293F, transfected, purified (Ni Sepharose); not shown: His8, C-terminal, kept

Binder	Kd [1] [pM]	koff [1] [s⁻¹]	kon [1] [M⁻¹ s⁻¹]	Kd [2] [pM]	koff [2] [s⁻¹]	kon [2] [M⁻¹ s⁻¹]
neutralizing antibody 7F3 (antibody, V domains shown) VH: EVQLVESGGGLVKPGRSLRLSCTASGFTFGDYAMSWFRQAPGKGLEWVGFIRSKAYGGTTEYAASVKGRFTISRDDSKSIAYLQMNSLKTEDTAVYYCTRDRYARYDILTGLSPAGADYFYYAMDVWGQGTTVTVSS VL: EIVLTQSPATLSLSPGERATLSCRASQSVSSYLAWYQQKPGQAPRLLIYDASNRATGIPARFSGSGSGTDFTLTISSLEPEDFAVYYCQQRSNWPQYTFGQGTKLEIK	< 1	< 1e-07	192000			
7F3 neutralizing antibody (IgG) (antibody, V domains shown) VH: EVQLVESGGGLVKPGRSLRLSCTASGFTFGDYAMSWFRQAPGKGLEWVGFIRSKAYGGTTEYAASVKGRFTISRDDSKSIAYLQMNSLKTEDTAVYYCTRDRYARYDILTGLSPAGADYFYYAMDVWGQGTTVTVSS VL: EIVLTQSPATLSLSPGERATLSCRASQSVSSYLAWYQQKPGQAPRLLIYDASNRATGIPARFSGSGSGTDFTLTISSLEPEDFAVYYCQQRSNWPQYTFGQGTKLEIK				< 1	< 1e-07	192000
LY-CoV1404 (also known as bebtelovimab) (antibody, V domains shown, control antibody) VH: QITLKESGPTLVKPTQTLTLTCTFSGFSLSISGVGVGWLRQPPGKALEWLALIYWDDDKRYSPSLKSRLTISKDTSKNQVVLKMTNIDPVDTATYYCAHHSISTIFDHWGQGTLVTVSS VL: QSALTQPASVSGSPGQSITISCTATSSDVGDYNYVSWYQQHPGKAPKLMIFEVSDRPSGISNRFSGSKSGNTASLTISGLQAEDEADYYCSSYTTSSAVFGGGTKLTVL	< 1	< 1e-07	79100			
LY-CoV1404 (bebtelovimab) (antibody, V domains shown) VH: QITLKESGPTLVKPTQTLTLTCTFSGFSLSISGVGVGWLRQPPGKALEWLALIYWDDDKRYSPSLKSRLTISKDTSKNQVVLKMTNIDPVDTATYYCAHHSISTIFDHWGQGTLVTVSS VL: QSALTQPASVSGSPGQSITISCTATSSDVGDYNYVSWYQQHPGKAPKLMIFEVSDRPSGISNRFSGSKSGNTASLTISGLQAEDEADYYCSSYTTSSAVFGGGTKLTVL				< 1	< 1e-07	79100
